Tested on: adipose-derived mesenchymal stem cells (ADSC)
Experiment: Amount of exosomes produced from ADSC, measured with Exo Counter (CD81 sandwich immunoassay) after excluding single factors
Type: cell-based
Conditions: 48-hour culture in DMEM F12 on nonwoven fabric; one factor excluded from the eight factors of Table 1, compared with all eight added; CD81 on exosome surface detected in culture supernatant; FIG. 1
Method: 4×10^4 adipose-derived mesenchymal stem cells (ADSC) were seeded in each well. A nonwoven fabric (3D, BioNOCII, CESCO BIOENGINEERING CO., LTD. in non-adhesive 24 well plate (PrimeSurface (registered trademark) Sumitomo Bakelite Co., Ltd.) was used for cell culture. A basal medium was 1.5 ml of 10% FBS/DMEM F12 (Sigma-Aldrich). The number of days of culture was 6. Starting from Day 2, 1.5 ml of medium was exchanged daily, and the amount of sugar consumed in the used culture medium was measured.
Next, in the cell culture for 48 hours on Day 7 and Day 8, DMEM F12 was used as a medium so as to collect exosomes. In this 48-hour culture, 10% ExoFBS (Funakoshi Co., Ltd.) was added in Test #1. ExoFBS is a product from which bovine-derived exosomes are removed; therefore, influence on an exosome research is reduced.
In Test #3 of the 48-hour culture, only factor A was excluded from the eight factors shown in Table 1, and the other factors were added. In Test #4 of the 48-hour culture, only factor B was excluded from the eight factors shown in Table 1, and the other factors were added. […]
The amount of exosomes produced from ADSC was measured with Exo Counter (Kenwood), using 50 μl each from 1.5 ml of the collected culture supernatant. […] CD81 on the exosome surface was detected to quantify the exosome amount.

B1: SCGF (protein, UniProt Q9Y240 22-323, looked up)
C-type lectin domain family …: ARGAEREWEGGWGGAQEEEREREALMLKHLQEALGLPAGRGDENPAGTVEGKEDWEMEEDQGEEEEEEATPTPSSGPSPSPTPEDIVTYILGRLAGLDAGLHQLHVRLHALDTRVVELTQGLRQLRNAAGDTRDAVQALQEAQGRAEREHGRLEGCLKGLRLGHKCFLLSRDFEAQAAAQARCTARGGSLAQPADRQQMEALTRYLRAALAPYNWPVWLGVHDRRAEGLYLFENGQRVSFFAWHRSPRPELGAQPSASPHPLSPDQPNGGTLENCVAQASDDGSWWDHDCQRRLYYVCEFPF
notes: 29-kDa protein having no N-type sugar chain, belongs to a C-type lectin family
effect of the factor on the amount of exosomes produced: inhibits the production of exosomes

From patent publication US20240279611A1, “EXOSOME PRODUCTION PROMOTING AGENT AND EXOSOME PRODUCTION PROMOTING METHOD” (FULLSTEM CO., LTD., priority 2021, published 2024)
